Laboratory results taken from US8324344B2, “Membrane transduction peptides and methods of delivering material to a target cell” (STC.UNM, priority 2008, dated 2012).
Entries after “also recorded” stand apart in the source; their conditions may differ.

Legend:
HT-1080 cells [1] = assay: Internalization of offered recombinant proteins in HT-1080 cells, immunoblotting of cytosolic and nuclear fractions; type: cell-based, human; details: 1 μM; for Internalization to cytosol and nucleus of HT-1080 cells: 37° C.
Method: HT-1080 cells were grown in six-well plates under standard conditions. At confluence, the cells were treated with fresh medium containing either wild-type TFPI-2, TFPI-2^1-188, R24Q KD1, R24K KD1, or R24K KD1-CT as previously described (Kempaiah and Kisiel, Apoptosis, 2008;13:702-715). Briefly, duplicate wells were treated with purified proteins (1 μM final concentration) and incubated at either 37° C. or 4° C. for different time periods. Two wells were also treated with phosphate-buffered saline (PBS) at each temperature to serve as a control. At selected time points, the media was removed and the cells were rinsed once with PBS. The cells were then washed with 1 M NaCl/PBS for 30 minutes with gentle shaking to dissociate cell surface-bound proteins (Iino et al., Arterioscler. Thromb. Vasc. Biol., 1998;18:40-46). Finally, the cells were rinsed once with PBS, trypsinized and harvested for the preparation of cell lysates and cell fractions.
To prepare total cell lysates, 1-3×10^6 cells were lysed by sonication in 500 μl of lysis buffer containing of 125 mM Tris-HCl (pH 6.8), 2% SDS, 10% glycerol, 50 mM sodium phosphate, 1 mM phenylmethanesulphonylfluoride (PMSF) and protease inhibitor cocktail. The lysate was kept on ice for about 10 minutes, centrifuged for 15 minutes at 10,000×g at 4° C., and the supernatant recovered. To prepare nuclear and cytosolic fractions, approximately 2×10^6 cells were harvested and washed twice with cold PBS by centrifugation at 600×g in a Beckman J-6M/E centrifuge for seven minutes at 4° C. Five volumes of ice cold cytosolic buffer (10 mM Hepes pH 7.4, 0.33 M sucrose, 1 mM MgCl2, 0.1% Triton X-100 and protease inhibitor cocktail) was added to the cells and incubated on ice for 15 minutes. The cytosolic fraction was collected by centrifugation at 900×g for five minutes at 4° C. The resulting undissolved pellet was washed twice with cytosolic buffer followed by centrifugation at 900×g for five minutes at 4° C. Finally, the resulting pellet was resuspended in five volumes of ice cold buffer containing 0.45 M NaCl in 10 mM Hepes (pH 7.4) and protease inhibitor cocktail. The suspension was incubated on ice for an additional 15 minutes to dissolve the nucleus, and subsequently centrifuged at 18,000×g for five minutes at 4° C. The resulting supernatant was collected as the nuclear extract. All samples were boiled for three minutes in the presence of 5% SDS and stored at −20° C. until use.
The cell lysate, cytosol and nuclear fractions were subjected to SDS-PAGE using 4-20% polyacrylamide gradient gels. […] The membranes were then probed with specific antibodies dissolved in fresh blocking buffer. Immunoreactive proteins were identified using HRP-conjugated secondary antibodies and a chemiluminescent reagent system essentially as described (Kempaiah et al., Mol. Cancer, 2007;6:20). The integrity of the cytosolic and nuclear fractions was verified using anti-α-tubulin and anti-histone-H1 antibodies, respectively (Guo et al., Am. J Physiol. Cell Physiol., 2007;292:2095-2102).
The relative intensity of the Western blot bands were quantified using QUANTISCAN software (Biosoft, Cambridge, U.K.). The intensities are reported in arbitrary units (A.U.) obtained by subtracting the background value from the corresponding band's mean value.

HT-1080 cells [2] = assay: Localization of protein in stably-transfected overexpressing HT-1080 cells, immunoblotting and immunocytochemistry; type: cell-based, human; details: HT-1080 cells stably transfected with cDNA (FIG. 3, FIG. 4C, 4D)
Method: HT-1080 and HEK 293 cell lines were stably transfected to overexpress either wild-type human TFPI-2 or a mutant TFPI-2 construct lacking the carboxy-terminal tail (TFPI-2^1-188), and were maintained as described (Chand et al., Blood, 2004;103:1069-1077, Du et al., Arch. Biochem. Biophys:, 2003;417:96-104). An anti-human TFPI-2 murine monoclonal antibody designated as SK-9 was prepared as described (Du et al., Arch. Biochem. Biophys., 2003;417:96-104) and coupled to Affi-Gel 10 according to the manufacturer's recommendation. Recombinant human TFPI-2 was purified from HEK 293 serum-free conditioned media by a two-step chromatography procedure involving heparin-agarose (Sprecher et al., Proc. Natl. Acad. Sci. USA., 1994;91:3353-3357) and SK-9-AffiGel 10 affinity chromatography. In the latter procedure, heparin-agarose purified TFPI-2 was dialyzed against 50 mM Tris-HCl (pH 7.5) and applied to the SK-9-AffiGel 10 column equilibrated at room temperature with this buffer. After a wash step with 50 mM Tris-HCl (pH 7.5)/0.5 M NaCl, TFPI-2 was eluted with 0.1 M glycine (pH 2.5)/0.5 M NaCl into one-tenth volume of 1 M Tris-HCl (pH 8.8) to immediately neutralize the pH 2.5 glycine. […]

human tumor cell lines = details: cited from earlier work
HT-1080 cells [3] = assay: Confocal microscopy of Alexa Fluor 488-conjugated TFPI-2 internalization in HT-1080 cells; type: cell-based, human; details: 50 μg/ml
Method: The internalization of recombinant TFPI-2 in HT-1080 cells was assessed by confocal microscopy using a Zeiss LSM510-META microscope and Alexa Fluor 488-conjugated TFPI-2. Approximately 0.5 mg of recombinant TFPI-2 protein was labeled with Alexa Fluor 488 dye following the manufacturer's instructions. Alexa Fluor-conjugated protein (50 μg/ml) was added to two sets of HT-1080 cells that were grown to confluence in two-chamber culture slides and incubated either at 37° C. or 4° C. for different time periods. Cells were then washed twice with cold PBS and fixed with 4% paraformaldehyde solution for 15 minutes. The slides were further rinsed twice with cold PBS, treated with a drop of mounting medium containing 4′,6-diamidino-2-phenylindole (DAPI), and covered with a coverslip for confocal microscopy.

[4] = five minutes, immunoblot (FIG. 4B)

B1: TFPI-2^1-188: TFPI-2 construct lacking the carboxy-terminal tail (amino acids 189-213 of SEQ ID NO:1) (protein, listed as Homo sapiens)
chain: DAAQEPTGNNAEICLLPLDYGPCRALLLRYYYDRYTQSCRQFLYGGCEGNANNFYTWEACDDACWRIEKVPKVCRLQVSVDDQCEGSTEKYFFNLSSMTCEKFFSGGCHRNRIENRFPDEATCMGFCAPKKIPSFCYSPKDEGLCSANVTRYYFNPRYRTCDAFTYTGCGGNDNNFVSREDCKRACAK
modifications: tissue factor pathway inhibitor-2
- Internalization to cytosol and nucleus of HT-1080 cells (HT-1080 cells [1]; up to 30 minutes, immunoblot (FIG. 4A)): is not internalized as readily to either the cytosol or nucleus; also recorded: slowly internalized, but failed to be transported to the nucleus
- Localization of overexpressed protein (HT-1080 cells [2]): failed to demonstrate nuclear localization; also recorded: confined to the cytoplasm

B2: R24K KD1-CT: Chimera of first Kunitz-type domain (amino acids 1-73, R24K) and carboxy-terminal tail (amino acids 187-213) of TFPI-2, SEQ ID NO:2 (protein)
chain: DAAQEPTGNNAEICLLPLDYGPCRALLLRYYYDRYTQSCRQFLYGGCEGNANNFYTWEACDDACWRIEKVPKVEFAKALKKKKKMPKLRFASRIRKIRKKQF
modifications: chimera of the first Kunitz-type domain (with the R24K mutation) and the carboxy-terminal tail
- Internalization to cytosol and nucleus of HT-1080 cells (HT-1080 cells [1]; [4]): is internalized to both the cytosol and nuclear fractions; also recorded: rapidly internalized and translocated to the nucleus
- Internalization to cytosol and nucleus of HT-1080 cells (HT-1080 cells [1]; five minutes, immunoblot (FIG. 4B), listed as R24KD 1-CT): internalized and translocated to the nucleus within minutes

B3: R24K KD1: Mutated first Kunitz-type domain of TFPI-2 (R24K), recombinant (protein)
chain: DAAQEPTGNNAEICLLPLDYGPCKALLLRYYYDRYTQSCRQFLYGGCEGNANNFYTWEACDDACWRIEKVPKV
modifications: left off: small tags and cut ends
notes: Mutated first Kunitz-type domain of TFPI-2 (R24K), recombinant
- Internalization to cytosol and nucleus of HT-1080 cells (HT-1080 cells [1]; [4]): is not internalized to either the cytosol or nucleus; also recorded: failed to enter the cells
- Internalization by HT-1080 cells after 48-hour incubation (HT-1080 cells [1]; 48-hour incubation at 37° C.): failed to be internalized
- Apoptosis induction potency relative to TFPI-2 (human tumor cell lines): more potent inducer of apoptosis than TFPI-2
- Induction of caspase-mediated apoptosis (human tumor cell lines; several tumor cell lines, exogenously offered, Kempaiah and Kisiel 2008): induce caspase-mediated apoptosis

B4: Alexa Fluor 488-conjugated TFPI-2: Recombinant TFPI-2 protein labeled with Alexa Fluor 488 dye (conjugate, UniProt P48307 23-235, looked up)
Tissue factor pathway …: DAAQEPTGNNAEICLLPLDYGPCRALLLRYYYDRYTQSCRQFLYGGCEGNANNFYTWEACDDACWRIEKVPKVCRLQVSVDDQCEGSTEKYFFNLSSMTCEKFFSGGCHRNRIENRFPDEATCMGFCAPKKIPSFCYSPKDEGLCSANVTRYYFNPRYRTCDAFTYTGCGGNDNNFVSREDCKRACAKALKKKKKMPKLRFASRIRKIRKKQF
modifications: Alexa Fluor 488 label
notes: Recombinant TFPI-2 protein labeled with Alexa Fluor 488 dye
- Intracellular localization by confocal microscopy (HT-1080 cells [3]; 4° C., five minutes and 10 minutes (FIG. 1D)): limited punctate distribution of TFPI-2 in the cytosol
- Intracellular localization by confocal microscopy (HT-1080 cells [3]; 4° C., two hour time point (FIG. 1D)): significant cytosolic and nuclear-associated TFPI-2
- Intracellular localization by confocal microscopy (HT-1080 cells [3]; two-hour incubation at 37° C. (FIG. 1B)): cytosolic and nuclear localization of TFPI-2; also recorded: uniform distribution of TFPI-2
